Assay results from publication PMC3742261, “Integrated Self-Assembly of the Mms6 Magnetosome Protein to Form an Iron-Responsive Structure” (International Journal of Molecular Sciences, 2013).
Where “and” joins values, the source holds several entries; their conditions need not be identical. Equal values may be shown once. One block for each molecule: values may come before it.

Columns and labels:
[1] = biological target: Mms6 W79F,W95F (Magnetospirillum magneticum strain AMB-1) (UniProt Q2W8R5); assay: SEC; Superose 12 column, protein loaded at 0.2 mg/mL, BC100 buffer (20 mM Tris, 100 mM KCl, pH 7.5), 4 °C; percent of total protein in the void volume by peak integration
[2] = biological target: Mms6 W95A (Magnetospirillum magneticum strain AMB-1) (UniProt Q2W8R5); assay: as above
[3] = biological target: Mms6 L84A, L86A, L88A, L90A, L92A (GL repeat replaced with a GA repeat) (Magnetospirillum magneticum strain AMB-1) (UniProt Q2W8R5); assay: SEC; Superose 12 column, protein loaded at 1 mg/mL, 4 °C; percent of total protein in the void volume by peak integration
[4] = biological target: Mms6 L84A, L86A, L88A, L90A, L92A (GL repeat replaced with a GA repeat) (Magnetospirillum magneticum strain AMB-1) (UniProt Q2W8R5); assay: SEC; Superose 12 column, protein loaded at 0.2 mg/mL, BC100 buffer (20 mM Tris, 100 mM KCl, pH 7.5), 4 °C; percent of total protein in the void volume by peak integration
[5] = biological target: Mms6 I117G (Magnetospirillum magneticum strain AMB-1) (UniProt Q2W8R5); assay: as above
[6] = biological target: Mms6 W79F (Magnetospirillum magneticum strain AMB-1) (UniProt Q2W8R5); assay: as above
[7] = biological target: Mms6 L128G (Magnetospirillum magneticum strain AMB-1) (UniProt Q2W8R5); assay: as above
[8] = biological target: Mms6 (wild type, mature form, His-tagged) (Magnetospirillum magneticum strain AMB-1) (UniProt Q2W8R5); assay: as above
[9] = biological target: Mms6 W79A (Magnetospirillum magneticum strain AMB-1) (UniProt Q2W8R5); assay: as above
[10] = biological target: Mms6 L132G (Magnetospirillum magneticum strain AMB-1) (UniProt Q2W8R5); assay: as above
[11] = biological target: Mms6 W95F (Magnetospirillum magneticum strain AMB-1) (UniProt Q2W8R5); assay: as above
[12] = biological target: the molecule itself; assay: SEC; Superdex Peptide 10/300 column, 80 micrograms C21Mms6, 20 mM Tris, pH 7.5; size from a standard curve
[13] = biological target: the molecule itself; assay: SEC; Superdex Peptide 10/300 column, 80 micrograms C21Mms6, 20 mM Tris, 100 mM KCl, pH 7.5; size from a standard curve
[14] = biological target: the molecule itself; assay: SEC; Superdex Peptide 10/300 column, 80 micrograms C21Mms6, 50 mM Formate or Citrate, pH 3 with FeCl3:protein = 8:1; size from a standard curve
[15] = biological target: the molecule itself; assay: SEC; Superdex Peptide 10/300 column, 80 micrograms C21Mms6, 10 mM Pi, 100 mM KCl, pH 7.5; size from a standard curve
[16] = biological target: the molecule itself; assay: SEC; Superdex Peptide 10/300 column, 80 micrograms C21Mms6, 50 mM Formate or Citrate, pH 3; size from a standard curve
[17] = biological target: the molecule itself; assay: SEC; Superdex Peptide 10/300 column, 80 micrograms C21Mms6, 10 mM Pi, pH 7.5; size from a standard curve
[18] = biological target: the molecule itself; assay: SEC; Superdex Peptide 10/300 column, 80 micrograms C21Mms6, 20 mM Tris, 1.5 or 3 M KCl, pH 7.5; size from a standard curve

Molecule: Mms6 W79F,W95F (from UniProt Q2W8R5 1-133) (natural protein)
% protein in Vo [1]: 75% and 82%

Molecule: Mms6 W79F (from UniProt Q2W8R5 1-133) (natural protein)
% protein in Vo [6]: 96%

Molecule: Mms6 (wild type, mature form, His-tagged) (from UniProt Q2W8R5 1-133) (natural protein)
% protein in Vo [8]: 100%

Molecule: Mms6 W95F (from UniProt Q2W8R5 1-133) (natural protein)
% protein in Vo [11]: 97%

B1: C21Mms6 (synthetic peptide of the C-terminal 21 amino acids of Mms6) (peptide, UniProt Q2W8R5 113-133, looked up)
peptide: KSRDIESAQSDEEVELRDALA
notes: Mms6, Magnetospirillum magneticum AMB-1, C-terminal 21 amino acids; also called synthetic 21 amino acid peptide C-terminal domain; source: synthetic peptide, ordered from GenScript
stoichiometry N [12]: 2 C21Mms6 units/multimer
stoichiometry N [13]: 4.1 C21Mms6 units/multimer
stoichiometry N [14]: 2.1 C21Mms6 units/multimer
stoichiometry N [15]: 4 C21Mms6 units/multimer
stoichiometry N [16]: 2 C21Mms6 units/multimer
stoichiometry N [17]: 7.3 C21Mms6 units/multimer
stoichiometry N [18]: 1.8 C21Mms6 units/multimer

Results, then the molecule that gave them:

% protein in Vo [2]: 49% and 70%
Molecule: Mms6 W95A (from UniProt Q2W8R5 1-133) (natural protein)

% protein in Vo [3]: 55%
% protein in Vo [4]: 46% and 54%
Molecule: Mms6 L84A, L86A, L88A, L90A, L92A (GL repeat replaced with a GA repeat) (from UniProt Q2W8R5 1-133) (natural protein)

% protein in Vo [5]: 94% and 95%
Molecule: Mms6 I117G (from UniProt Q2W8R5 1-133) (natural protein)

% protein in Vo [7]: 63% and 86%
Molecule: Mms6 L128G (from UniProt Q2W8R5 1-133) (natural protein)

% protein in Vo [9]: 79% and 83%
Molecule: Mms6 W79A (from UniProt Q2W8R5 1-133) (natural protein)

% protein in Vo [10]: 29% and 37%
Molecule: Mms6 L132G (from UniProt Q2W8R5 1-133) (natural protein)
